The target of experiment [1] is T1, FcγRIIb (extracellular domain, C-terminal His tag) (human, UniProt P31994 43-217).
T1 construct: extracellular domain; also called FcgRIIb; 2b; not shown: His tag attached to the C terminus
T1 sequence (looked up): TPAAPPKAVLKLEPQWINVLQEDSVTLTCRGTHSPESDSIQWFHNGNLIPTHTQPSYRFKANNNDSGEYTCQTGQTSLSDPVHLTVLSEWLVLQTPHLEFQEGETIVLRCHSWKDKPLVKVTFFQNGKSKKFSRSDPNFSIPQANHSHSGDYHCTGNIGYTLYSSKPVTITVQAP
The experiment is described as follows: SPR (Biacore), antibody captured on antigen-peptide chip, FcγR as analyte; relative binding amount. The procedure:
(§1) The heterodimerized antibodies He Abs in which one of the H chains was introduced with an alteration were assayed for their binding activities to each activating FcγR and inhibitory FcγR according to the method described in Example 4. […] The activating FcγRs in FIGS. 26, 27, 28, and 29 are FcγRIa, FcγRIIa (R), FcγRIIa (H), and FcγRIIIa, respectively.
(§2) Analysis of interaction between objective antibody and the FcγR was carried out using Biacore T100 (GE Healthcare). HBS-EP+ (GE Healthcare) was used as the running buffer, and the measurement temperature was set to 25° C. Chips produced by immobilizing the antigen peptide by the amine coupling method to a Series S Sencor Chip CM5 (GE Healthcare), or alternatively, chips produced by allowing preliminarily biotinylated antigen peptides to interact with and immobilize onto a Series S Sensor Chip SA (certified) (GE Healthcare) were used. Antibodies of interest were captured onto an antigen peptide-immobilized chip, and allowed to interact to each FcγR diluted with running buffer. To regenerate and repeatedly use the chip, the antibodies captured on the chip were washed off by reacting 10 mM glycine-HCl, pH 1.5.

The target in experiment [2] is T2, FcγRIIa R (extracellular domain, C-terminal His tag) (human, UniProt P12318 34-217).
T2 construct: extracellular domain; also called FcgRIIa R type; 2aR; not shown: His tag attached to the C terminus
T2 sequence (looked up): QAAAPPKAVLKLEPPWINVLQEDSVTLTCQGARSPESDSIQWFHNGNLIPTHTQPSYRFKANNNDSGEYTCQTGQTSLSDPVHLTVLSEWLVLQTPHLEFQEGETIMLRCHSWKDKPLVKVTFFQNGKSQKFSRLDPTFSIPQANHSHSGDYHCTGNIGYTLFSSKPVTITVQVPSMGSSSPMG
Described as above. The procedure:
as §1, §2

The target of experiment [3] is T3, FcγRIIb extracellular domain with C-terminal His tag (human, UniProt P31994 43-217).
T3 construct: extracellular domain; Expressed in FreeStyle293 cells; used as analyte in Biacore; also called FcgRIIb; 2b; not shown: C-terminal His tag
T3 sequence (looked up): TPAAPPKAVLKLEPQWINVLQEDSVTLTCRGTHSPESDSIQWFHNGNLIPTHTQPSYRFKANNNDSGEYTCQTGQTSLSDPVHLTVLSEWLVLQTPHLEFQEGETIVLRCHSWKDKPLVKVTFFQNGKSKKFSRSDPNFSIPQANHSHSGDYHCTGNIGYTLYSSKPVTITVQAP
The experiment is described as follows: SPR (Biacore), antibody captured on antigen-peptide chip, FcgRIIb as analyte; binding relative to GpH7-A5/GpH7-B3/GpL16-k0 (HeCon Ab) = 100.

The text below walks through data of patent publication US20180155451A1 (published 2018).

B1: GpH7-A5/GpH7-B3 variant S337_02A/GpL16-k0 (antibody, human IgG1, kappa)
heavy 1: not shown
heavy 2: not shown
light: DIVMTQSPLSLPVTPGEPASISCQASESLVHSNRNTYLHWYLQKPGQSPQLLIYKVSNRFSGVPDRFSGSGSGTDFTLKISRVEAEDVGVYYCSQNTHVPPTFGQGTKVEIERTVAAPSVFIFPPSDEQLKSGTASVVCLLNNFYPREAKVQWKVDNALQSGNSQESVTEQDSKDSTYSLSSTLTLSKADYEKHKVYACEVTHQGLSSPVTKSFNRGEC
notes: Heterodimerized anti-glypican-3 IgG1; alteration in only one H chain (GpH7-B3 side); also called He Ab
For B1, in experiment [1], the He/Con_2b is 97.2 % of control (GpH7-A5/GpH7-B3/GpL16-k0 = 100). For the same molecule, in experiment [2], the He/Con_2aR is 105 % of control (GpH7-A5/GpH7-B3/GpL16-k0 = 100).

B2: GpH7-A5/GpH7-B3 variant S337_11K/GpL16-k0 (antibody, human IgG1, kappa)
heavy 1: not shown
heavy 2: not shown
light: DIVMTQSPLSLPVTPGEPASISCQASESLVHSNRNTYLHWYLQKPGQSPQLLIYKVSNRFSGVPDRFSGSGSGTDFTLKISRVEAEDVGVYYCSQNTHVPPTFGQGTKVEIERTVAAPSVFIFPPSDEQLKSGTASVVCLLNNFYPREAKVQWKVDNALQSGNSQESVTEQDSKDSTYSLSSTLTLSKADYEKHKVYACEVTHQGLSSPVTKSFNRGEC
notes: as for B1
For B2, in experiment [1], the He/Con_2b was 94.3 % of control (GpH7-A5/GpH7-B3/GpL16-k0 = 100). Also, the He/Con_2aR in experiment [2] is 103 % of control (GpH7-A5/GpH7-B3/GpL16-k0 = 100).

B3: GpH7-A5/GpH7-B3 variant S337_06M/GpL16-k0 (antibody, human IgG1, kappa)
heavy 1: not shown
heavy 2: not shown
light: DIVMTQSPLSLPVTPGEPASISCQASESLVHSNRNTYLHWYLQKPGQSPQLLIYKVSNRFSGVPDRFSGSGSGTDFTLKISRVEAEDVGVYYCSQNTHVPPTFGQGTKVEIERTVAAPSVFIFPPSDEQLKSGTASVVCLLNNFYPREAKVQWKVDNALQSGNSQESVTEQDSKDSTYSLSSTLTLSKADYEKHKVYACEVTHQGLSSPVTKSFNRGEC
notes: as for B1
In the case of B3, the He/Con_2b in experiment [1] was 96.7 % of control (GpH7-A5/GpH7-B3/GpL16-k0 = 100). Further, the He/Con_2aR in experiment [2] was 105 % of control (GpH7-A5/GpH7-B3/GpL16-k0 = 100).

B4: GpH7-A5/GpH7-B3 variant S337_03V/GpL16-k0 (antibody, human IgG1, kappa)
heavy 1: not shown
heavy 2: not shown
light: DIVMTQSPLSLPVTPGEPASISCQASESLVHSNRNTYLHWYLQKPGQSPQLLIYKVSNRFSGVPDRFSGSGSGTDFTLKISRVEAEDVGVYYCSQNTHVPPTFGQGTKVEIERTVAAPSVFIFPPSDEQLKSGTASVVCLLNNFYPREAKVQWKVDNALQSGNSQESVTEQDSKDSTYSLSSTLTLSKADYEKHKVYACEVTHQGLSSPVTKSFNRGEC
notes: as for B1
For the molecule B4, the He/Con_2b in experiment [1] was 98.9 % of control (GpH7-A5/GpH7-B3/GpL16-k0 = 100). The He/Con_2aR in experiment [2] was 106 % of control (GpH7-A5/GpH7-B3/GpL16-k0 = 100).

B5: GpH7-A5/GpH7-B3 variant T335_08L/GpL16-k0 (He Ab) (antibody, human IgG1, kappa)
heavy 1: not shown
heavy 2: not shown
light: DIVMTQSPLSLPVTPGEPASISCQASESLVHSNRNTYLHWYLQKPGQSPQLLIYKVSNRFSGVPDRFSGSGSGTDFTLKISRVEAEDVGVYYCSQNTHVPPTFGQGTKVEIERTVAAPSVFIFPPSDEQLKSGTASVVCLLNNFYPREAKVQWKVDNALQSGNSQESVTEQDSKDSTYSLSSTLTLSKADYEKHKVYACEVTHQGLSSPVTKSFNRGEC
notes: Substitution in one H chain only; position in EU numbering; also called T335L heterodimerized antibody
With B5, in experiment [3], the He/Con_2b was 104 % of control.

B6: GpH7-A5/GpH7-B3 variant T335_04F/GpL16-k0 (He Ab) (antibody, human IgG1, kappa)
heavy 1: not shown
heavy 2: not shown
light: DIVMTQSPLSLPVTPGEPASISCQASESLVHSNRNTYLHWYLQKPGQSPQLLIYKVSNRFSGVPDRFSGSGSGTDFTLKISRVEAEDVGVYYCSQNTHVPPTFGQGTKVEIERTVAAPSVFIFPPSDEQLKSGTASVVCLLNNFYPREAKVQWKVDNALQSGNSQESVTEQDSKDSTYSLSSTLTLSKADYEKHKVYACEVTHQGLSSPVTKSFNRGEC
notes: Substitution in one H chain only; position in EU numbering; also called T335F heterodimerized antibody
In the case of B6, the He/Con_2b in experiment [3] was 103 % of control.

B7: GpH7-A5/GpH7-B3 variant S337_14T/GpL16-k0 (He Ab) (antibody, human IgG1, kappa)
heavy 1: not shown
heavy 2: not shown
light: DIVMTQSPLSLPVTPGEPASISCQASESLVHSNRNTYLHWYLQKPGQSPQLLIYKVSNRFSGVPDRFSGSGSGTDFTLKISRVEAEDVGVYYCSQNTHVPPTFGQGTKVEIERTVAAPSVFIFPPSDEQLKSGTASVVCLLNNFYPREAKVQWKVDNALQSGNSQESVTEQDSKDSTYSLSSTLTLSKADYEKHKVYACEVTHQGLSSPVTKSFNRGEC
notes: Substitution in one H chain only; position in EU numbering; also called S337T heterodimerized antibody
Regarding B7, the He/Con_2b in experiment [3] is 105 % of control.
